Assay results published in patent US20090053203A1 (ONTHERIX, published 2009).
Ends that are not written are not given here.

Columns and labels:
Assay in all cases: chemical cross-linking of the biotinylated peptide on chilled cells, capture on Ni-NTA plates, detection with an antibody to the marker
PCNA = target: T1, PCNA (UniProt P12004 1-261, limits assumed)
T1 construct: whole, on cells
Description: (§1) HEK293 kidney cell line and 54 tumor cell lines obtained from the National Cancer Institute and passaged in RPMI1640 cell culture medium supplemented with 10% fetal bovine serum and 10 uM FeCl₂. Uptake of streptavidin-horseradish peroxidase (SA-HRP) conjugate and of various SA-HRP::MBD peptide complexes was determined as described (Singh et al. J Biol Chem. 279 (1):477-87 [2004]) using biotinylated MBD9 ([…]) (SEQ ID NO: 10) and MBD21 ([…]) (SEQ ID NO: 4) peptides and SA-HRP. Nuclear and cytoplasmic localization of these proteins was also determined in each case. […] In order to establish the underlying molecular mechanism for this variability, we cross-linked MBD21 peptide to the following cell surface markers at 4 degrees Celsius as previously described (Singh et al. J Biol Chem. 279 (1):477-87 [2004]): transferrin receptor 1, caveolin 1, PCNA, integrins alpha v, 2, 5 and 6, integrins beta 1, 3 and 5. […] Based on the strength of these correlations, it was possible to derive crude predictive formulae for MBD-mediated uptake based on the rate of cross-linking to surface markers. Such predictive formulas could form the basis for a diagnostic procedure to select appropriate targets for MBD-based therapies.

transferrin receptor 1 = target: T2, transferrin receptor 1 (UniProt P02786 1-760, limits assumed)
T2 construct: whole, on cells
Description: as §1

caveolin 1 = target: T3, caveolin 1 (UniProt Q03135 2-178, limits assumed)
T3 construct: whole, on cells
T3 sequence (looked up): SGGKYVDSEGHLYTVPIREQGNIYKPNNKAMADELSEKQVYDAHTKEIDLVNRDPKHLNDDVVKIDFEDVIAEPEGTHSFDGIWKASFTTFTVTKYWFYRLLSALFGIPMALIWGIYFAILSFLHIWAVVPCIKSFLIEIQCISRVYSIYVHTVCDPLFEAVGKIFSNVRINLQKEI
Description: as §1

Measured: binding result

T1 sequence (P12004 whole entry): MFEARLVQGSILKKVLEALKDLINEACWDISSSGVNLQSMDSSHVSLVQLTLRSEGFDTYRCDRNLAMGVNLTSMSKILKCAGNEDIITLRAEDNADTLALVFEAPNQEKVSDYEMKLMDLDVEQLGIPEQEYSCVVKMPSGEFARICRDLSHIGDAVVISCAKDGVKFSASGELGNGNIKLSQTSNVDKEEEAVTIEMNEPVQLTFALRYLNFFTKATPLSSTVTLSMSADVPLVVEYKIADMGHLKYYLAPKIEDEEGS
T2 sequence (P02786 whole entry): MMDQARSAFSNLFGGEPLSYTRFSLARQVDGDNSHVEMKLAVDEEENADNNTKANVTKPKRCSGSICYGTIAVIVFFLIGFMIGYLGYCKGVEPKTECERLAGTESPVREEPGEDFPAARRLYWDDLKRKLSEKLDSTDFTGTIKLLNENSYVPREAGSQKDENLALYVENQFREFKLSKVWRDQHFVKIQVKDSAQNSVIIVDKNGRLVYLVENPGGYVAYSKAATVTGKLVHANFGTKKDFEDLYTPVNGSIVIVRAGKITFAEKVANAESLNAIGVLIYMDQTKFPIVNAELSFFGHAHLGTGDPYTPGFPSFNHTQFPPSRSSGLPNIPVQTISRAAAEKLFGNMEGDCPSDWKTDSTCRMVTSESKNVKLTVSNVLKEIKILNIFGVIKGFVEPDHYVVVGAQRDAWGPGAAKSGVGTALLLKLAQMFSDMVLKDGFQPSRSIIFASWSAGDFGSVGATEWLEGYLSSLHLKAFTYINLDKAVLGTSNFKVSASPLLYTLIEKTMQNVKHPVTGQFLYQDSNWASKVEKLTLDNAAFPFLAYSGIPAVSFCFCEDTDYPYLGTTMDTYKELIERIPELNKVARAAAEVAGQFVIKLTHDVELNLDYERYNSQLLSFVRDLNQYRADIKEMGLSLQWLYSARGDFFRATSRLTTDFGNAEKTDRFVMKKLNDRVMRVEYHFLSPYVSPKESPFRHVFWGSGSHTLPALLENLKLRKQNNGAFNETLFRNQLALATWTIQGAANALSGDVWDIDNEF

B1: MBD21 peptide (biotinylated) (peptide)
peptide: KKGFYKKKQCRPSKGRKRGFCWAVDKYG
modifications: cysteine pairing not given here; also: biotinylated, position not given here
notes: also called biotinylated MBD21 peptide
binds: PCNA | transferrin receptor 1 | caveolin 1
